Test results published in patent publication US11813311B2, “Treatment and prevention of metabolic diseases” (Singapore Health Services PTE LTD., priority 2019, dated 2023).

What was measured:
HSCs [1] = assay: HSC-to-myofibroblast transformation (ACTA2/Collagen I, Operetta); type: cell-based, human; settings: IL-11 5 ng/ml, 24 h
Procedure: Cells (atrial fibroblasts, HSCs and hepatocytes) were grown and maintained at 37° C. and 5% CO2. The growth medium was renewed every 2-3 days and cells were passaged at 80-90% confluence using standard trypsinization techniques. All the experiments were carried out at low cell passage (P1-P2). Cells were serum-starved for 16 h prior to stimulations. Stimulated cells were compared to unstimulated cells that have been grown for the same duration under the same conditions (serum-free media), but without the stimuli.
HSCs (5300, ScienCell) were cultured in stellate cells complete media (5301, ScienCell) on poly-L-lysine-coated plates (2 μg/cm2, 0403, ScienCell).
The Operetta assay was performed mostly as described previously 11 with minor modifications described here: HSCs or hepatocytes were seeded in 96-well black CellCarrier plates (PerkinElmer) at a density of 5×10^3 cells per well. Following experimental conditions, cells were fixed in 4% paraformaldehyde (PFA, 28908, Thermo Fisher), permeabilized with 0.1% Triton X-100 (Sigma) and non-specific sites were blocked with 0.5% BSA and 0.1% Tween-20 in PBS. Cells were incubated overnight (4° C.) with primary antibodies (1:500), followed by incubation with the appropriate AlexaFluor 488 secondary antibodies (1:1000). Rhodamine Phalloidin staining (1:1000, R415, Thermo Fisher) was performed by overnight incubation (4° C.). […]

HSCs [2] = assay: Matrigel invasion assay of HSCs; type: cell-based, human; settings: 48 h
Procedure: The invasive behavior of human HSCs was assayed using 24-well Boyden chamber invasion assays (Cell Biolabs Inc.). Equal numbers of HSCs in serum-free HSC media were seeded in triplicates onto the ECM-coated matrigel and were allowed to invade towards HSC media containing 0.2% FBS. After 48 h of incubation with stimuli, media was aspirated and non-invasive cells were removed using cotton swabs. The cells that invaded towards the bottom chamber were stained with cell staining solution (Cell Biolabs Inc.) and invasive cells from 5 non-overlapping fields/membrane were imaged and counted under 40× magnification. For antibody inhibition experiments, HSCs were pretreated with X203, X209, or IgG control antibodies for 15 m prior to addition of stimuli.

ERK = ERK activation in HSCs (Western blot); type: cell-based, human; settings: stimulation with IL-11
Procedure: Western blots were carried out on total protein extracts from HSCs and liver tissues. Both cells and frozen tissues were homogenized in radioimmunoprecipitation assay (RIPA) buffer containing protease and phosphatase inhibitors (Thermo Scientifics), followed by centrifugation to clear the lysate. Protein concentrations were determined by Bradford assay (Bio-Rad). Equal amount of protein lysates were separated by SDS-PAGE, transferred to PVDF membrane, and subjected to immunoblot analysis for the indicated primary antibodies. Proteins were visualized using the ECL detection system (Pierce) with the appropriate secondary antibodies.

HSCs [3] = assay: CCL2 secretion by HSCs (ELISA); type: cell-based, human; settings: IL-11 5 ng/ml
Procedure: FIG. 31A to 31H. Neutralizing anti-IL-11 and anti-IL11 RA antibodies protect HFMCD-fed mice from hepatic fibrosis and inflammation. (A) CCL2 in the supernatants of HSCs (n=4/group) without stimulus (−), with IL-11, or with TGFβ1 in the presence of IgG, X203, or X209 by ELISA; IL-11 (5 ng m1^−1), TGFβ1 (5 ng m1^−1), IgG, X203, and X209 (2 μg m1^−1). (B) Representative gross liver images, (C) Western blots of hepatic ERK activation status, (D) representative (scale bars, 100 μm) and (E) quantification of Masson's Trichrome stained images of livers after 5 weeks of early X203 and X209 treatments. (F) Liver hydroxyproline content (the values of NC and HFMCD 1 week diets are the same as those used in FIG. 25C, the values of IgG 3 and 6 weeks are the same as those used in FIG. 22F, n≥5/group), (G) relative RNA expression levels of fibrosis markers in the livers after 5 weeks treatment of X203 and X209 by qPCR, which confirms data from RNA-seq (the values of NC 6 week for Col1a1, Col1a2, Col3a1, and Acta2 are the same as those shown in FIG. 28D, n≥5/group), and (H) serum ALT levels (the values of NC and HFMCD 1 week are the same as those used in FIG. 25D, the values of IgG 3 and 6 weeks (2 weeks and 5 weeks treatment, respectively) are the same as those used in FIG. 22G, n≥5/group). […]

[4] = test system: primary human hepatocytes; assay: Stimulation of primary human hepatocytes with IL11, hyperIL11, hyperIL6; type: cell-based
Procedure: Human hepatocytes (5200, ScienCell) were grown and maintained in hepatocyte media (5201, ScienCell) supplemented with 2% fetal bovine serum (FBS) and 1% Penicillin-streptomycin.
Primary human hepatocytes (5200, ScienCell) were maintained in hepatocyte medium ([…], ScienCell) supplemented with 2% fetal bovine serum, 1% Penicillin-streptomycin at 37° C. and 5% CO2. Hepatocytes (P2-P3) were serum-starved overnight unless otherwise specified in the methods prior to 24 hours stimulation with different doses of various recombinant proteins as described.
For surface IL11RA, IL6R, and gp130 analysis, primary human hepatocytes and THP-1 cells were stained with IL11RA, IL6R, or gp130 antibody and the corresponding Alexa Fluor 488 secondary antibody. Cell death analysis was performed by staining primary human hepatocytes with Dead Cell Apoptosis Kit with Annexin V FITC and PI (V13242, Thermo Fisher). PI+ve cells were then quantified with the flow cytometer (Fortessa, BD Biosciences) and analyzed with FlowJo version X software (TreeStar).
Alanine Aminotransferase (ALT) activity in the cell culture supernatant and mouse serum was measured using ALT Activity Assay Kit (ab105134, Abcam). Liver Glutathione (GSH) levels were measured using Glutathione Colorimetric Detection Kit (EIAGSHC, Thermo Fisher). Total hydroxyproline content in mouse livers was measured using Quickzyme Total Collagen assay kit (QZBtotco15, Quickzyme Biosciences). The levels of serum and liver triglycerides were measured using Triglyceride Assay Kit (ab65336, Abcam). Mouse serum levels of Aspartate Aminotransferase (AST) and cholesterol were measured using AST Assay Kit (ab105135, Abcam) and Cholesterol Assay Kit (ab65390; Abcam), respectively. All colorimetric assays were performed according to the manufacturer's protocol.
Western blots were carried out on total protein extracts from hepatocytes and liver tissues. Hepatocyte and liver tissue lysates were homogenized in RIPA Lysis and Extraction Buffer (89901, Thermo Scientific) containing protease and phosphatase inhibitors (Roche). Protein lysates were separated by SDS-PAGE and transferred to PVDF membranes. Protein bands were visualized using the ECL detection system (Pierce) with the appropriate secondary antibodies: anti-rabbit HRP or anti-mouse HRP.

PSCs = assay: Pancreatic stellate cell (PSC) activation in vitro; type: cell-based; settings: treatment with IL-11, 24 hours
Procedure: FIGS. 48A and 48B. Box plots and images showing activation of pancreatic stellate cells (PSCs) to a αSMA-positive, collagen-expressing fibrogenic phenotype. (A) Quantification of high-content imaging assays for the percentage of ACTA2-positive cells and collagen I intensity/area following in vitro stimulation of PSCs for 24 hours with the indicated factors, in the presence or absence of neutralising anti-IL-11 RA antibody or IgG isotype control antibody. (B) Representative images for high-content imaging analysis of collagen I intensity/area following in vitro stimulation of PSCs for 24 hours with the indicated factors, in the presence of neutralising anti-IL-11 RA antibody or IgG isotype control antibody.

IL-11Rα = IL-11Rα alone, low affinity; cited from earlier work

B1: IL-11: Interleukin 11; recombinant human IL11 (UniProtKB:P20809) used to stimulate cells (protein, listed as Homo sapiens)
chain: MNCVCRLVLVVLSLWPDTAVAPGPPPGPPRVSPDPRAELDSTVLLTRSLLADTRQLAAQLRDKFPADGDHNLDSLPTLAMSAGALGALQLPGVLTRLRADLLSYLRHVQWLRRAGGSSLKTLEPELGTLQARLDRLLRRLQLLMSRLALPQPPPDPPAPPLAPPSSAWGGIRAAHAILGGLHLTLDWAVRGLLLLKTRL
modifications: IL-11 (UniProt P20809)
notes: Interleukin 11; recombinant human IL11 (UniProtKB:P20809) used to stimulate cells
With B1 as the molecule, how does the “activation of HSCs into ACTA2+ve myofibroblasts” value (HSCs [1]) read?
The value was “activated HSCs to a similar extent as TGFβ1 or PDGF”.

And the “matrix invasion by HSCs” value (HSCs [2])?
The value was “promoted dose-dependent matrix invasion”.

What about the “ERK activation in HSCs” value (ERK) of the same molecule?
Its value is “directly activates ERK”.

And the “HSC production of CCL2” value (HSCs [3])?
The value was “stimulated HSC production of CCL2”.

What about the hepatocyte cell death ([4]; IL11 0.625 ng/ml to 20 ng/ml) of the same molecule?
Its hepatocyte cell death is “caused hepatocyte cell death”.

And the “expression of stress fibres in hepatocytes” value ([4]; IL-11, dose range)?
Its value is “progressive increase in expression of stress fibres”.

And the “release of ALT from hepatocytes” value ([4]; physiological levels of IL-11)?
The value was “dose-dependent release of ALT”.

And the PSC activation (PSCs)?
Its PSC activation is “triggered”.

And the Kd (IL-11Rα)?
The Kd was ~10 nM.
